Data taken from patent publication US20170355774A1 (Regeneron, published 2017).

T1: human GITR (amino acids M1-V241, NCBI Accession #NP_004186.1) expressed on cells (human, UniProt Q9Y5U5 26-241)
T1 construct: also called hGITR; hGITR/HEK293-D9
T1 sequence: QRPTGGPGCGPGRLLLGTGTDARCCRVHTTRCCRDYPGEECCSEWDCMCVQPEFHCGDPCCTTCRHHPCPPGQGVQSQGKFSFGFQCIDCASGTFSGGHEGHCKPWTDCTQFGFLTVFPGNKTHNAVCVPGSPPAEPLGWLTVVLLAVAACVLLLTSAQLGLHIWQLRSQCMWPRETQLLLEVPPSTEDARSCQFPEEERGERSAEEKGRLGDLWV

T2: hGITR.mmh (human)
T2 construct: soluble monomeric construct; also called human (h) GITR.mmh; monomeric human GITR
T2 chain: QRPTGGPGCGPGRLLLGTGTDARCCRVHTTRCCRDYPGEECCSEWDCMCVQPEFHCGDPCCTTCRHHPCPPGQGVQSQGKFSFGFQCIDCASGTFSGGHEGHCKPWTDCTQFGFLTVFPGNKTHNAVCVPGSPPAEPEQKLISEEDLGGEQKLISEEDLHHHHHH

T3: mfGITR.mmh (Macaca fasicularis)
T3 construct: soluble monomeric construct; also called Macaca fasicularis (mf) GITR.mmh; cynomolgus GITR protein
T3 chain: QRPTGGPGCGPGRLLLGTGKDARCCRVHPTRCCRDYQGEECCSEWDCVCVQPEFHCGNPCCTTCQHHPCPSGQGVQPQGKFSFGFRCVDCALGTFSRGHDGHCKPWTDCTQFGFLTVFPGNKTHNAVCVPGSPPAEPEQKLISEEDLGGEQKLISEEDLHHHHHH

T4: hGITR.mFc (human)
T4 construct: soluble dimeric construct with mouse Fc; also called dimeric human GITR
T4 chain: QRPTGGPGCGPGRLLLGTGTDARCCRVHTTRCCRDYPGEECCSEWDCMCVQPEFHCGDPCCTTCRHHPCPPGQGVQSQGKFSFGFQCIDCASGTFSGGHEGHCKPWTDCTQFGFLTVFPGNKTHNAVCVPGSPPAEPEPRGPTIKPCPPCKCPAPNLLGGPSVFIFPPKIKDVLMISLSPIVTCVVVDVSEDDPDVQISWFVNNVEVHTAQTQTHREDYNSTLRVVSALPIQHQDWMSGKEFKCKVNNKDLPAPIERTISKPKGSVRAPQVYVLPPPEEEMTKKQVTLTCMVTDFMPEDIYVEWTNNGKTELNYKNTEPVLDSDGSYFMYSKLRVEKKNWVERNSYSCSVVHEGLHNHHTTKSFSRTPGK


Tests used:
[1] = molecular target: T1, human GITR (amino acids M1-V241, NCBI …); test: ECL cell binding, hGITR/HEK293-D9
Description: Nonspecific binding sites were blocked with 2% BSA (w/v)+PBS for 1 h at room temperature (RT). Next, serial dilutions of anti-GITR antibodies, ranging from 1.7 pM to 100 nM, were added to cells for 1 h at RT. Plates were then washed to remove unbound antibodies (AquaMax2000 plate washer, MSD Analytical Technologies) and plate-bound antibodies were detected with a SULFO-TAG™ conjugated anti-human kappa light chain IgG antibody (Jackson Immunoresearch) for 1 h at RT.
Following washes, luminescent signals were recorded with a SECTOR Imager 6000 (MSD) instrument. Direct binding signals (relative light units, RLU) were analyzed as a function of the antibody concentration and data were fitted with a sigmoidal (four-parameter logistic) dose-response model using GraphPad Prism™ software. […] The signal detected with 100 nM antibody binding to the hGITR expressing cells versus parental cells was recorded as an indication of intensity and specificity of GITR binding.

[2] = molecular target: T1, human GITR (amino acids M1-V241, NCBI …); test: cell-based or functional assay
[3] = molecular target: T2, hGITR.mmh; test: SPR 37C, mAb capture
Description: (§1) (Table 3). […] GITR proteins were injected over the sensor surface at a flow rate of 30 μL/minute. All Biacore binding studies were performed in a buffer composed of 0.01M HEPES pH 7.4, 0.15M NaCl, 3 mM EDTA, 0.05% v/v Surfactant P20 (HBS-ET running buffer). Antibody-reagent association was monitored for 4 minutes while dissociation in HBS-ET running buffer (10 mM HEPES, 150 mM NaCl, 3 mM EDTA, 0.05% (v/v) Surfactant P20, pH 7.4) was monitored for 10 minutes. Kinetic association (kₐ) and dissociation (kd) rate constants were determined by fitting the real-time sensorgrams to a 1:1 binding model using Scrubber 2.0c curve fitting software. Binding dissociation equilibrium constants (KD) and dissociative half-lives (t ½) were calculated from the kinetic rate constants as: KD [M]=kd/kₐ; and t_{1/2}(min)=(ln 2/(60*kd). Results are summarized in Table 3.

[4] = molecular target: T3, mfGITR.mmh; test: SPR 37C, mAb capture
Description: as §1

[5] = molecular target: T4, hGITR.mFc; test: SPR 37C, mAb capture
Description: as §1

Binder | Average Signal (RLU) at 100 nM [1] | EC50 [1] | % Activation, NF-kB-Luc, non-anchored [2] | % Blocking, NF-kB-Luc, non-anchored [2] | EC50, hGITR activation, NF-kB-Luc, non-anchored [2] | IC50, blocking of hGITRL stimulation, NF-kB-Luc, non-anchored [2] | Kd [3] | koff [3] | kon [3] | t½ [3] | Kd [4] | koff [4] | kon [4] | t½ [4] | Kd [5] | koff [5] | kon [5] | t½ [5]
H1H14503P (antibody, human IgG1, V domains shown, human IgG1 (H1H)) VH: QVQLVESGGGVVQPGRSLRLSCEASGFTFSNYGFHWVRQAPGKGLDWVAVIWYAGSNKFYVDSVQGRFTISRDNSKQILFLQMNSLRAEDSAVYYCVRGGILGIDYYSGMDVWGQGTTVTVSS VL: AIQMTQSPSSLSASVGDRVTITCRASQDIRNDLGWYQQRPGKAPKFLIYSTSSLQSGVPSRFSGSGSGTDFILTISSLQPEDFATYYCLQSHNYPWTFGHGTKVEIK | 5880 RLU | 0.21 nM | 50% | 90% | 1.4 nM | 0.6 nM | 1.39 nM | 0.000739 s⁻¹ | 532000 M⁻¹ s⁻¹ | 15.6 min | 20.9 nM | 0.0056 s⁻¹ | 268000 M⁻¹ s⁻¹ | 2.1 min | 0.137 nM | 0.000154 s⁻¹ | 1.12e+06 M⁻¹ s⁻¹ | 75 min
H1H14491P (antibody, human IgG1, V domains shown, human IgG1 (H1H)) VH: QVQLVESGGGVVQPGRSLRLSCVASGFTFSDYGMHWVRQAPGKGLEWVAVIWYEGSNKYYADSVTGRFTISRDNSKNTLFLQMNSLKAEDTAEYYCAKDGGQLAYQYYYGMDVWGQGTTVTVSS VL: AIQMTQSPSSLSASVGDRVTLTCRASQGIRNDLGWYQQKPGKAPKSLIYAASNLQSGVPSRFSGSGSGTDFTLTISSLQPEDSATYYCLQDYNYPRTFGQGTKVEIK | 6840 RLU | 0.4 nM | 60% | 90% | 2 nM | 0.6 nM | 5.06 nM | 0.00162 s⁻¹ | 319000 M⁻¹ s⁻¹ | 7.2 min | 75.3 nM | 0.00889 s⁻¹ | 118000 M⁻¹ s⁻¹ | 1.3 min | 0.201 nM | 0.000169 s⁻¹ | 842000 M⁻¹ s⁻¹ | 68.3 min
H4H14530P (antibody, human IgG4, V domains shown, human IgG4 (H4H)) VH: QLQLQESGPGLVKPSETLSLTCTVSGGSISSTNHYWGWIRQPPGKGLEWIGNVYYIGNAYYNPSLKTGVTFSVDTSKNQFSLNLRSVTAADTAMYYCARLSNWNFLDLWGQGTLVTVSS VL: EIVMTQSPATLSVSPGERATLSCRASQSISSNLAWYQQKPGQAPRLLIYGASTRATGIPARFSGSGSGTEFTLTISSLQSEDFAVYYCQQFNNWLSFGGGTKVEIK | 4200 RLU | 85 nM |  |  |  |  | 5.06 nM | 0.00138 s⁻¹ | 272000 M⁻¹ s⁻¹ | 8.4 min | 2.55 nM | 0.000611 s⁻¹ | 240000 M⁻¹ s⁻¹ | 18.9 min | 0.63 nM | 0.000185 s⁻¹ | 293000 M⁻¹ s⁻¹ | 62.6 min
